# Assay results taken from publication PMC5815136.
# Numbering of substitutions follows the chain as printed.
# T1: Ct_Rio2 K106A (Chaetomium thermophilum? (given only as …, UniProt L0BC08 1-396, K106A))
# T1 sequence: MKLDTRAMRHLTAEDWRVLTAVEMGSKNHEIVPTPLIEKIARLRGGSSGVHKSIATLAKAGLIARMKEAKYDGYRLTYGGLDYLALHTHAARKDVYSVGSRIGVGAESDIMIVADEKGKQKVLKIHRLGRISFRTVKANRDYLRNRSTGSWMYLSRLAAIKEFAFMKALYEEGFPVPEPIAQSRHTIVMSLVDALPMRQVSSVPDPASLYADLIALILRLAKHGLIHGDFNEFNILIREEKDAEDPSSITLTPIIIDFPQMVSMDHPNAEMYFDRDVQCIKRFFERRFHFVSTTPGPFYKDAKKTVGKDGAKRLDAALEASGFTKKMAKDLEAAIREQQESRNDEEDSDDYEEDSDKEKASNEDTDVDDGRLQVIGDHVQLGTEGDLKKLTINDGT
# T2: Ct_Rio2 (Chaetomium thermophilum? (given only as …, UniProt L0BC08 1-396))
# T2 sequence: T1 sequence with A106K
# B1: h31* (h31-Stab) (structured_RNA)
# RNA: GGGUUAAUUUGACUCAACACAAAGAAA
# B2: h31 (structured_RNA)
# RNA: GGGUUAAUUUGACUCAACACGGGGAAA
# Legend:
# Ct_Rio2 K106A = target: T1, Ct_Rio2 K106A; experiment: EMSA
# Ct_Rio2 = target: T2, Ct_Rio2; experiment: EMSA
Binder,binding result (Ct_Rio2 K106A),binding result (Ct_Rio2)
B1,binds,binds
B2,–,binds
